One test deals with HLA-A*69:01. The test is described as follows: IEDB peptide-MHC binding, purified MHC/direct/fluorescence; filed as Kd, often an IC50 or EC50 that approximates it; ≥ and ≤ were set here for values at or beyond the usual limits of such assays.
Another test deals with HLA-B*40:01. Described as above.
In the next test the target is HLA-A*11:01. The description is as above.
Another test deals with HLA-B*58:01. Described as above.
The target of a further test is HLA-A*26:01. The description is as above.
Another test has as its target HLA-B*15:01. The test is described as above.
Another test has as its target HLA-A*03:01. The description is as above.
Test [1] has as its target HLA-A*02:01. The description is as above.
The target of the next test is HLA-B*08:01. Described as above.
In a further test the target is HLA-B*07:02. The test is described as above.
A further test has as its target HLA-A*01:01. The description is as above.
In another test the target is HLA-B*44:02. Described as above.
Another test deals with HLA-B*27:05. Described as above.
The next test deals with HLA-A*31:01. Described as above. The note with it: source organism: Cryptosporidium parvum.
The next test has as its target HLA-A*68:02. As to the kind of experiment: IEDB peptide-MHC binding, purified MHC/competitive/radioactivity; filed as Kd, often an IC50 or EC50 that approximates it; ≥ and ≤ were set here for values at or beyond the usual limits of such assays.
The target of test [2] is HLA-A*02:01. As to the kind of experiment: IEDB peptide-MHC binding, purified MHC/competitive/fluorescence; ≥ and ≤ were set here for values at or beyond the usual limits of such assays.
A further test deals with HLA-B*18:01. The test is described as follows: IEDB peptide-MHC binding, purified MHC/direct/fluorescence; filed as Kd, often an IC50 or EC50 that approximates it; ≥ and ≤ were set here for values at or beyond the usual limits of such assays.
For the next test, the target named is HLA-B*44:03. As to the kind of experiment: IEDB peptide-MHC binding, purified MHC/competitive/radioactivity; filed as Kd, often an IC50 or EC50 that approximates it; ≥ and ≤ were set here for values at or beyond the usual limits of such assays. The note with it: source organism: Dengue virus 1 Brazil/97-11/1997.
The target of the next test is HLA-B*51:01. The test is described as above.
In a further test the target is HLA-B*53:01. The test is described as above.
The target of a further test is HLA-A*24:02. As to the kind of experiment: IEDB peptide-MHC binding, purified MHC/competitive/fluorescence; ≥ and ≤ were set here for values at or beyond the usual limits of such assays.
The target of a further test is HLA-A*02:06. As to the kind of experiment: IEDB peptide-MHC binding, purified MHC/competitive/radioactivity; filed as Kd, often an IC50 or EC50 that approximates it; ≥ and ≤ were set here for values at or beyond the usual limits of such assays. The note with it: source organism: Dengue virus 3 Martinique/1243/1999.
Setting [3] is: source organism: Cryptosporidium parvum.
[4] abbreviates: source organism: Dengue virus 3 Martinique/1243/1999.
Setting [5] is: source organism: Zaire ebolavirus.
The mark [6] stands for this setting: source organism: Dengue virus 2 Jamaica/1409/1983.
The mark [7] stands for this setting: source organism: Dengue virus 1 Singapore/S275/1990.
Where [8] appears, read: source organism: Vaccinia virus Copenhagen.
[9] abbreviates: source organism: Orthohantavirus hantanense.
The mark [10] stands for this setting: source organism: Giardia lamblia ATCC 50803.
Setting [11] is: source organism: Dengue virus 2 Peru/IQT2913/1996.
Setting [12] is: source organism: Escherichia coli.

In general, Kd refers to the constant that tells how readily two partners part at equilibrium. The IC50 is the point on the concentration scale where inhibition reaches its midpoint.

For DFIGKTIGF, the Kd is at least 20 µM with HLA-A*69:01 (setting [3]); at least 20 µM with HLA-B*40:01 (setting [3]); at least 20 µM with HLA-A*11:01 (setting [3]); at least 20 µM with HLA-B*58:01 (setting [3]); 0.186 µM in the test with HLA-A*26:01 (setting [3]); at least 20 µM with HLA-B*15:01 (setting [3]). In addition, the dissociation constant Kd in the test with HLA-A*03:01 (setting [3]), with HLA-A*02:01 [1] (setting [3]), with HLA-B*08:01 (setting [3]), in the test with HLA-B*07:02 (setting [3]), with HLA-A*01:01 (setting [3]) and with HLA-B*44:02 (setting [3]) was at least 20 µM each time. The Kd with HLA-B*27:05 (setting [3]) and with HLA-A*31:01 was at least 20 µM throughout.
Consider TVAWRTATLI, for which the Kd in the test with HLA-A*68:02 (setting [4]) was 0.0615 µM.
In the test with HLA-A*02:01 [2] (setting [5]), ELLPAVSSG had a 50% inhibitory concentration (IC50) of at least 194 µM.
With TTHFQRALI, the equilibrium dissociation constant (Kd) in the test with HLA-A*68:02 (setting [6]) came to 0.0013 µM.
Turning to LEFFLMVLL, the Kd is 0.189 µM with HLA-B*18:01 (setting [7]), at least 20 µM with HLA-B*44:02 (setting [7]) and 15.6 µM in the test with HLA-B*44:03.
In the test with HLA-A*02:01 [2] (setting [8]), YVSAGESSI displayed an IC50 of 32.7 µM.
With AEAAGCSMI, the Kd in the test with HLA-B*40:01 (setting [9]) was 0.0045 µM; with HLA-B*18:01 (setting [9]) it was at least 20 µM.
Consider YSAPSESEGV, for which, in the test with HLA-A*68:02 (source organism: Dengue virus 4 Dominica/814669/1981), the dissociation constant Kd was 0.0122 µM.
With DYIYLPLLK, the Kd was at least 20 µM with HLA-A*69:01 (setting [10]); at least 20 µM with HLA-B*40:01 (setting [10]); at least 20 µM with HLA-B*58:01 (setting [10]); at least 20 µM with HLA-A*26:01 (setting [10]); at least 20 µM with HLA-B*15:01 (setting [10]); 2.22 µM with HLA-A*03:01 (setting [10]). Besides, the Kd in the test with HLA-A*02:01 [1] (setting [10]), in the test with HLA-B*08:01 (setting [10]), in the test with HLA-B*07:02 (setting [10]), with HLA-A*01:01 (setting [10]), with HLA-B*44:02 (setting [10]) and with HLA-B*27:05 (setting [10]) was at least 20 µM each time.
With QPESNILDI, the equilibrium dissociation constant (Kd) is at least 46.4 µM with HLA-B*51:01 (setting [11]) and 1.01 µM with HLA-B*53:01 (setting [11]).
Take SPCKIPFEI: the Kd with HLA-B*51:01 (setting [6]) is at least 47.7 µM; in the test with HLA-B*53:01 (setting [6]), 1.28 µM.
In the case of ANLEDLIEW, the half-maximal inhibitory concentration (IC50) with HLA-A*24:02 (source organism: Vaccinia virus) is at least 235 µM.
Take WVMKIGIGV: the dissociation constant (Kd) with HLA-A*02:06 is 0.00138 µM; with HLA-A*68:02 (setting [4]) it was 0.00527 µM.
In the test with HLA-A*02:01 [2] (setting [5]), STLAGVNVG came in with a concentration for half-maximal inhibition (IC50) of at least 105 µM.
In the test with HLA-A*24:02 (source organism: Sudan ebolavirus), IYTEGLMHN showed a half-maximal inhibitory concentration (IC50) of 4.41 µM.
For the sequence LGLMALKLI, in the test with HLA-B*51:01 (setting [4]), the equilibrium dissociation constant (Kd) turned out to be 8.37 µM.
In turn, YQLLEAVYG showed an IC50 in the test with HLA-A*02:01 [2] (setting [8]) of 31.1 µM.
With TVANNPDDK, the Kd was at least 20 µM with HLA-A*69:01 (setting [12]); at least 20 µM in the test with HLA-B*40:01 (setting [12]); 1.58 µM in the test with HLA-A*11:01 (setting [12]); at least 20 µM with HLA-B*58:01 (setting [12]); at least 20 µM in the test with HLA-A*26:01 (setting [12]); at least 20 µM with HLA-B*15:01 (setting [12]). Moreover, the Kd with HLA-A*03:01 (setting [12]), with HLA-A*02:01 [1] (setting [12]), with HLA-B*08:01 (setting [12]), with HLA-B*07:02 (setting [12]), in the test with HLA-A*01:01 (setting [12]) and in the test with HLA-B*27:05 (setting [12]) was at least 20 µM each time.
For the sequence MVSILASSLL, the Kd with HLA-A*68:02 (setting [6]) is 0.0447 µM.
